Residue numbers refer to the chain shown, from its start.

The chains are these.
B1: wild-type LKB1: Flag-tagged wild-type LKB1 serine/threonine kinase immunoprecipitated from HT1080 cells (protein)
chain: MEVVDPQQLGMFTEGELMSVGMDTFIHRIDSTEVIYQPRRKRAKLIGKYLMGDLLGEGSYGKVKEVLDSETLCRRAVKILKKKKLRRIPNGEANVKKEIQLLRRLRHKNVIQLVDVLYNEEKQKMYMVMEYCVCGMQEMLDSVPEKRFPVCQAHGYFCQLIDGLEYLHSQGIVHKDIKPGNLLLTTGGTLKISDLGVAEALHPFAADDTCRTSQGSPAFQPPEIANGLDTFSGFKVDIWSAGVTLYNITTGLYPFEGDNIYKLFENIGKGSYAIPGDCGPPLSDLLKGMLEYEPAKRFSIRQIRQHSWFRKKHPPAEAPVPIPPSPDTKDRWRSMTVVPYLEDLHGADEDEDLFDIEDDIIYTQDFTVPGQVPEEEASHNGQRRGLPKAVCMNGTEAAQLSTKSRAEGRAPNPARKACSASSKIRRLSACKQQ
modifications: left off: small tags and cut ends
notes: Flag-tagged wild-type LKB1 serine/threonine kinase immunoprecipitated from HT1080 cells
B2: Kinase-inactive LKB1: kinase-dead LKB1 mutant, alone or coexpressed with STRAD (protein)
chain: B1 chain with K78I
modifications: left off: small tags and cut ends
notes: kinase-dead LKB1 mutant, alone or coexpressed with STRAD
B3: STRAD-activated LKB1: wild-type LKB1 co-expressed with its coactivating protein STRAD, immunoprecipitated (protein)
chain 1: B1 chain
chain 2: MSFLVSKPERIRRWVSEKFIVEGLRDLELFGEQPPGDTRRKTNDASSESIASFSKQEVMSSFLPEGGCYELLTVIGKGFEDLMTVNLARYKPTGEYVTVRRINLEACSNEMVTFLQGELHVSKLFNHPNIVPYRATFIADNELWVVTSFMAYGSAKDLICTHFMDGMNELAIAYILQGVLKALDYIHHMGYVHRSVKASHILISVDGKVYLSGLRSNLSMISHGQRQRVVHDFPKYSVKVLPWLSPEVLQQNLQGYDAKSDIYSVGITACELANGHVPFKDMPATQMLLEKLNGTVPCLLDTSTIPAEELTMSPSRSVANSGLSDSLTTSTPRPSNGDSPSHPYHRTFSPHFHHFVEQCLQRNPDARPSASTLLNHSFFKQIKRRASEALPELLRPVTPITNFEGSQSQDHSGIFGLVTNLEELEVDDWEF
modifications: left off: small tags and cut ends

The data set deals with T1, MBP-AMPK (Rattus norvegicus, UniProt P54645).
T1 construct: MBP-AMPKa (1-312) bacterial fusion protein
T1 sequence (P54645 13-323): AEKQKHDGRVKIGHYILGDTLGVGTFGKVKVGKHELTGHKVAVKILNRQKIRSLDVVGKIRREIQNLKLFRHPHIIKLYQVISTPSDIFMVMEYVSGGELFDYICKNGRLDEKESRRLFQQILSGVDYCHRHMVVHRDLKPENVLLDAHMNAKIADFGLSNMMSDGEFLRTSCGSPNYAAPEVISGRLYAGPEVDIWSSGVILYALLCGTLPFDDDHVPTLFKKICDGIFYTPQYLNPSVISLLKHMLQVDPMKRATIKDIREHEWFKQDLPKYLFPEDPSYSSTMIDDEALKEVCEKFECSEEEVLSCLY
Nature of the data set: AMPK kinase activity on SAMS peptide after in vitro phosphorylation by LKB1. Format: biochemical. Conditions: in vitro phosphorylation of bacterial MBP-AMPK, SAMS peptide substrate. As to the method: FIG. 2a: Lineup of known LKB1 in vitro phosphorylation sites with sites of phosphorylation in human […] and its yeast homologue SNF1p. AMPKα1 Thr 172 (SEQ ID NO:1); SNF1p S.c. Thr 210 (SEQ ID NO:2); STRAD Thr 329 (SEQ ID NO:3); STRAD Thr 419 (SEQ ID NO:4); LKB1 auto Thr 185 (SEQ ID NO:5). FIG. 2b. HT1080 cells were transfected with wild-type or kinase dead (K78I) LKB1 with or without its coactivating protein STRAD. As indicated, LKB1 immunoprecipitations (IPs) were tested for their ability to transphosphorylate bacterial MBP-AMPKα in an in vitro kinase assay. Parallel in vitro kinase assays were performed using ^32P γ-ATP followed by autoradiography or cold ATP followed by immunoblotting for phospho-Thr172 AMPK and the indicated proteins. Wild-type LKB1 IPs were run in duplicate as shown. MBP-AMPK was also tested alone as indicated. Results are typical of 3 separate experiments. FIG. 2c: LKB1 phosphorylation of MBP-AMPK activates its kinase activity towards a peptide substrate (SAMS). LKB1 immunoprecipitates (as in FIG. 2a) were used to phosphorylate MBP-AMPK in vitro and then MBP-AMPK was removed and tested for its ability to trans-phosphorylate the SAMS peptide in the presence of ^32P γ-ATP. Results were performed in two separate experiments in triplicate. LKB1 alone was incapable of detectably phosphorylating the SAMS peptide, and equivalent levels of LKB1 and MBP-AMPK were used in each reaction (data not shown). Samples without LKB1, without SAMS peptide, or without MBP-AMPK all gave similar levels of background (data not shown).
Kinase Assays and Cellular Analysis: AMPK kinase activity was measured using the SAMS peptide as previously described (7). LKB1 phosphorylation of AMPK was carried out in kinase buffer (50 mM Tris pH 7.5, 10 mM MgCl2, 1 mM DTT, 100 μM ATP) for 20 mins at 30° C. For immunopreciptations of active LKB1 kinase, Flag-tagged LKB1 was co-transfected with an equimolar amount of STRAD expression plasmid into HT1080 cells and immunoprecipitated using M2-agarose (Sigma) 24 h post-transfection in NP40 lysis buffer26. […]
Consider B1, for which the “induced AMPK kinase activity” value is listed as 27 fold.

Turning to B2, the “induced AMPK kinase activity” value was “unable to activate AMPK”.

B3: the “induced AMPK kinase activity” value is 50 fold.

Values taken from patent US20120122991A1, “METHOD FOR TREATING CANCER BY INCREASING AMP-ACTIVATED KINASE ACTIVITY” (Dana-Farber Cancer Institute, Inc., priority 2003, published 2012).
